Data reported in publication PMC8499050 (Blood, 2021).
Values belong to the binder of their own block, whether it stands above or below them.

Key:
[1] = biological target: T1, EGR-chloromethylketone active-site inhibited des-(Gla-EGF1) FXa (Homo sapiens, EGR-chloromethylketone in the active site); assay: crystal structure
T1 chain 1: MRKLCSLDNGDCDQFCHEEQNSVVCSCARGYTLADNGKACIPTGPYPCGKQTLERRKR
T1 chain 2: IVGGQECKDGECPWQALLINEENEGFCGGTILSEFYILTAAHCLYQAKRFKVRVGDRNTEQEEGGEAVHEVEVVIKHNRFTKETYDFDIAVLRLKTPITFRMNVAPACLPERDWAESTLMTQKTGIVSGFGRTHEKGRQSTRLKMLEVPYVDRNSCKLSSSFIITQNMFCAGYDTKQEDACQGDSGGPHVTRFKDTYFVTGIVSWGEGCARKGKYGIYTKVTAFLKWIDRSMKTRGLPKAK

[2] = biological target: EGR-chloromethylketone active-site inhibited des-(Gla-EGF1) FIXa (Homo sapiens, EGR-chloromethylketone in the active site); assay: crystal structure

binding result [1]: binds
B1: Mim8 anti-FX Fab fragment (Fab, V domains shown)
VH: EVQLVQSGAEVKKPGESLRISCKGSGYSFSTSWIVWVRQMPGKGLEWMGMIDPSDSFTSYSPSFQGHVTISADKSISTAYLQWSSLKASDTAMYYCARLHYYNSEEFDVWGQGTLVTVSS
VL: EIVLTQSPGTLSLSPGERATLSCRASQSVSSSYLAWYQQKPGQAPRLLIYGQSSRTRGIPDRFSGSGSGTDFTLTISRLEPEDFAVYYCQQFGDSQLFTFGQGTKLEIK

binding result [2]: binds
B2: Mim8 anti-FIXa Fab fragment (Fab, V domains shown)
VH: EVQLVESGGGLVQPGRSLRLSCAASGFTFHDYAMHWVRQVPGKGLEWVSGISWRGDIGGYVKSVKGRFTISRDNAKNSLYLQMNSLRAEDTALYYCVKSYGSGSFYNAFDSWGQGTLVTVSS
VL: DIQMTQSPSTLSASVGDRVTITCRASQSISSWLAWYQQKPGKAPKFLIYKASKLERGTPSRFSGSGDGTEFSLTISSLQPDDFATYYCLEYSSYIRTFGQGTKVEIK
